One block for each sequence: values may come before it.
Tests used:
HLA-B*18:01 = assay: IEDB peptide-MHC binding, purified MHC/competitive/radioactivity; filed as Kd, often an IC50 or EC50 that approximates it; ≥ and ≤ were set here for values at or beyond the usual limits of such assays
HLA-B*40:01 [1] = assay: as above
HLA-B*40:02 = assay: as above
HLA-B*44:02 [2] = assay: as above
HLA-B*44:03 = assay: as above
HLA-B*45:01 = assay: as above
HLA-A*02:01 [3] = assay: as above
HLA-A*02:02 = assay: as above
HLA-A*02:03 = assay: as above
HLA-A*11:01 [4] = assay: IEDB peptide-MHC binding, purified MHC/competitive/fluorescence; ≥ and ≤ were set here for values at or beyond the usual limits of such assays
HLA-A*02:06 = assay: IEDB peptide-MHC binding, purified MHC/competitive/radioactivity; filed as Kd, often an IC50 or EC50 that approximates it; ≥ and ≤ were set here for values at or beyond the usual limits of such assays
HLA-A*68:02 = assay: as above
HLA-A*01:01 = assay: IEDB peptide-MHC binding, purified MHC/direct/fluorescence; filed as Kd, often an IC50 or EC50 that approximates it; ≥ and ≤ were set here for values at or beyond the usual limits of such assays; conditions: source organism: Giardia lamblia ATCC 50803
HLA-A*02:01 [5] = assay: as above; conditions: source organism: Giardia lamblia ATCC 50803
HLA-A*03:01 = assay: as above; conditions: source organism: Giardia lamblia ATCC 50803
HLA-A*11:01 [6] = assay: as above; conditions: source organism: Giardia lamblia ATCC 50803
HLA-A*26:01 = assay: as above; conditions: source organism: Giardia lamblia ATCC 50803
HLA-A*31:01 = assay: as above; conditions: source organism: Giardia lamblia ATCC 50803
HLA-A*69:01 = assay: as above; conditions: source organism: Giardia lamblia ATCC 50803
HLA-B*07:02 = assay: as above; conditions: source organism: Giardia lamblia ATCC 50803
HLA-B*08:01 = assay: as above; conditions: source organism: Giardia lamblia ATCC 50803
HLA-B*15:01 = assay: as above; conditions: source organism: Giardia lamblia ATCC 50803
HLA-B*15:17 = assay: as above; conditions: source organism: Giardia lamblia ATCC 50803
HLA-B*27:05 = assay: as above; conditions: source organism: Giardia lamblia ATCC 50803
HLA-B*40:01 [7] = assay: as above; conditions: source organism: Giardia lamblia ATCC 50803
HLA-B*44:02 [8] = assay: as above; conditions: source organism: Giardia lamblia ATCC 50803
HLA-B*57:01 = assay: as above; conditions: source organism: Giardia lamblia ATCC 50803
HLA-B*58:01 = assay: as above; conditions: source organism: Giardia lamblia ATCC 50803
HLA-B*46:01 = assay: IEDB peptide-MHC binding, purified MHC/competitive/fluorescence; filed as Kd, often an IC50 or EC50 that approximates it; ≥ and ≤ were set here for values at or beyond the usual limits of such assays; conditions: source organism: Giardia lamblia ATCC 50803
HLA-B*15:03 = assay: IEDB peptide-MHC binding, purified MHC/competitive/radioactivity; filed as Kd, often an IC50 or EC50 that approximates it; ≥ and ≤ were set here for values at or beyond the usual limits of such assays; conditions: source organism: Vaccinia virus WR
[9] = source organism: SARS coronavirus Tor2
[10] = source organism: Trypanosoma cruzi
[11] = source organism: Mammarenavirus guanaritoense
[12] = source organism: Mammarenavirus brazilense

Sequence: EELFYSYAT
- Kd (HLA-B*18:01; [9]): 1040 nM
- Kd (HLA-B*40:01 [1]; [9]): 691 nM
- Kd (HLA-B*40:02; [9]): 24.6 nM
- Kd (HLA-B*44:02 [2]; [9]): 278 nM
- Kd (HLA-B*44:03; [9]): 169 nM
- Kd (HLA-B*45:01; [9]): 3.16 nM

- Kd (HLA-A*02:01 [3]; source organism: Homo sapiens): ≤ 1 nM
Sequence: FLTYLDVSV

- Kd (HLA-A*02:01 [3]; source organism: Homo sapiens): 550 nM
- Kd (HLA-A*02:02; source organism: Homo sapiens): 20.5 nM
- Kd (HLA-A*02:03; source organism: Homo sapiens): 34.2 nM
Sequence: KLTKDFSAL

Sequence: TQALQLFLR
- IC50 (HLA-A*11:01 [4]; source organism: Sudan ebolavirus): 2530 nM

Sequence: GLLPLLLLLG
- Kd (HLA-A*02:01 [3]; [10]): 2.69 nM
- Kd (HLA-A*02:02; [10]): 79.2 nM
- Kd (HLA-A*02:03; [10]): 109 nM
- Kd (HLA-A*02:06; [10]): 15.3 nM
- Kd (HLA-A*68:02; [10]): 7010 nM

Sequence: YVLPRRGPRL
- Kd (HLA-A*02:01 [3]; source organism: Hepatitis C virus subtype 3a): 3570 nM

Sequence: VENPDILRV
- Kd (HLA-B*18:01; [9]): 9070 nM
- Kd (HLA-B*40:01 [1]; [9]): ≥ 21800 nM
- Kd (HLA-B*40:02; [9]): 1270 nM
- Kd (HLA-B*44:02 [2]; [9]): 5140 nM
- Kd (HLA-B*44:03; [9]): 250 nM
- Kd (HLA-B*45:01; [9]): 474 nM

- Kd (HLA-A*02:01 [3]; source organism: Homo sapiens): ≥ 40200 nM
- Kd (HLA-A*02:02; source organism: Homo sapiens): 2840 nM
- Kd (HLA-A*02:03; source organism: Homo sapiens): ≥ 94300 nM
- Kd (HLA-A*02:06; source organism: Homo sapiens): ≥ 71200 nM
- Kd (HLA-A*68:02; source organism: Homo sapiens): 9730 nM
Sequence: ELEQTYHAKL

Sequence: GEKSRCYSL
- Kd (HLA-B*18:01; [11]): ≥ 77500 nM
- Kd (HLA-B*40:01 [1]; [11]): 488 nM
- Kd (HLA-B*40:02; [11]): 14.7 nM
- Kd (HLA-B*44:02 [2]; [11]): 2050 nM
- Kd (HLA-B*44:03; [11]): 11900 nM
- Kd (HLA-B*45:01; [11]): 1240 nM

Sequence: ITFHNQRDF
- Kd (HLA-A*01:01): ≥ 20000 nM
- Kd (HLA-A*02:01 [5]): ≥ 20000 nM
- Kd (HLA-A*03:01): ≥ 20000 nM
- Kd (HLA-A*11:01 [6]): ≥ 20000 nM
- Kd (HLA-A*26:01): ≥ 20000 nM
- Kd (HLA-A*31:01): ≥ 20000 nM
- Kd (HLA-A*69:01): ≥ 20000 nM
- Kd (HLA-B*07:02): ≥ 20000 nM
- Kd (HLA-B*08:01): ≥ 20000 nM
- Kd (HLA-B*15:01): 146 nM
- Kd (HLA-B*15:17): 5.2 nM
- Kd (HLA-B*27:05): ≥ 20000 nM
- Kd (HLA-B*40:01 [7]): ≥ 20000 nM
- Kd (HLA-B*44:02 [8]): ≥ 20000 nM
- Kd (HLA-B*57:01): 125 nM
- Kd (HLA-B*58:01): 165 nM
- Kd (HLA-B*46:01): ≥ 20000 nM

Sequence: SIPNFNQYEA
- Kd (HLA-A*02:01 [3]; source organism: Lassa virus Josiah): ≥ 25000 nM

Sequence: LGGILPWTK
- IC50 (HLA-A*11:01 [4]; source organism: Vaccinia virus WR): 536 nM

Sequence: TMVNSLTYF
- Kd (HLA-B*15:03): 0.126 nM

- Kd (HLA-A*02:01 [3]; source organism: Homo sapiens): 29 nM
Sequence: SLADEAEVHL

Sequence: TEFACVVAEA
- Kd (HLA-B*18:01; [9]): 60.8 nM
- Kd (HLA-B*40:01 [1]; [9]): 1510 nM
- Kd (HLA-B*40:02; [9]): 14.6 nM
- Kd (HLA-B*44:02 [2]; [9]): 1440 nM
- Kd (HLA-B*44:03; [9]): 393 nM
- Kd (HLA-B*45:01; [9]): 8.98 nM

- Kd (HLA-A*02:01 [3]; source organism: Homo sapiens): 808 nM
- Kd (HLA-A*02:02; source organism: Homo sapiens): 14.4 nM
- Kd (HLA-A*02:03; source organism: Homo sapiens): 78.3 nM
- Kd (HLA-A*02:06; source organism: Homo sapiens): 13500 nM
- Kd (HLA-A*68:02; source organism: Homo sapiens): 2970 nM
Sequence: LLHQSSDKFV

Sequence: PEYFNSVCRL
- Kd (HLA-B*18:01; [9]): ≥ 70500 nM
- Kd (HLA-B*40:01 [1]; [9]): 2830 nM
- Kd (HLA-B*40:02; [9]): 1250 nM
- Kd (HLA-B*44:02 [2]; [9]): ≥ 32400 nM
- Kd (HLA-B*44:03; [9]): 9390 nM
- Kd (HLA-B*45:01; [9]): ≥ 33300 nM

Sequence: GDNEIEYGF
- Kd (HLA-B*18:01; [12]): 4070 nM
- Kd (HLA-B*40:01 [1]; [12]): 9480 nM
- Kd (HLA-B*40:02; [12]): 1280 nM
- Kd (HLA-B*44:02 [2]; [12]): 4340 nM
- Kd (HLA-B*44:03; [12]): 17000 nM
- Kd (HLA-B*45:01; [12]): 12200 nM

Sequence: WEILKFLIT
- Kd (HLA-B*18:01; [9]): 2900 nM
- Kd (HLA-B*40:01 [1]; [9]): 4360 nM
- Kd (HLA-B*40:02; [9]): 2.09 nM
- Kd (HLA-B*44:02 [2]; [9]): 9580 nM
- Kd (HLA-B*44:03; [9]): 1450 nM
- Kd (HLA-B*45:01; [9]): 4990 nM

Sequence: QKFPYEGGK
- IC50 (HLA-A*11:01 [4]; source organism: Vaccinia virus): ≥ 140000 nM

Reference: the Immune Epitope Database (IEDB)
